Results published in patent publication US7666835B2 (Imperial Innovations Limited, priority 2001, dated 2010).

Columns and labels:
[1] = iPVN injection, food intake in 24-h fasted rats (studies 1b, 2b); assay type: in vivo, rat; conditions: study 1b; iPVN; OXM, GLP-1 (3 nmol [sic]), exendin-4 0.03 nmol, glicentin, glucagon 1 nmol, SP-1 3 nmol; fasted rats
Experimental: (§1) Animals had permanent stainless steel guide cannulas (Plastics One, Roanoke, Va.) stereotactically implanted ICV or iPVN.
Therefore, exendin-4 was injected iPVN at a dose of 0.03 nmol.

[2] = ICV injection, food intake in 24-h fasted rats (studies 1a, 2a); assay type: in vivo, rat; conditions: study 1a; 3 nmol ICV; 24-h fasted rats; vs saline
From the text: as §1

B1: glicentin (peptide, UniProt P01275 21-89, looked up)
Glicentin: RSLQDTEEKSRSFSASQADPLSDPDQMNEDKRHSQGTFTSDYSKYLDSRRAQDFVQWLMNTKRNRNNIA
modifications: Glicentin
notes: proglucagon-derived peptide purchased from Peninsula Laboratories
refeeding (food intake) after iPVN injection [1]: failed to affect food intake at any time point | refeeding (food intake) after ICV injection [2]: failed to affect food intake at any time point
